System: human hemoglobin
Experiment: Proteolysis of human hemoglobin by proteases, fructosyl amino acid detected (Comparative Example 3)
Type: biochemical
Conditions: 1 mg/mL protease, 37° C. for 30 minutes; assay apparatus 2
Protocol: FIG. 2 was the flow type assay apparatus for fructosyl amino acid with the dialysis module. The buffer B was pumped out from the buffer tank (24) using the pump (25), and a 100 μL portion of the sample was injected using the valve (4). The protease-immobilized enzyme column (14), the second immobilized enzyme column (19), the electrode for hydrogen peroxide (20) and the flow type calorimeter (16) were not disposed. The fructosyl amino acid oxidase-immobilized column was placed in the first immobilized enzyme column (17). The injected sample transferred with the flowing buffer B, was carried to the dialysis module (27) in the incubator (13), and only the components with low molecular weight in the sample were permeated through the regenerated cellulose membrane with the membrane thickness of 20 μm and molecular weight cut off of 12000 to 14000 to a detection system (17, 18) of the fructosyl amino acid. Since the buffer A was pumped out from the buffer tank (1) by the pump (2), the components with low molecular weight in the sample dialyzed by the dialysis module passed through the fructosyl amino acid oxidase-immobilized column (17) and the electrode for hydrogen peroxide (18), and hydrogen peroxide produced from the fructosyl amino acid in the sample was detected. […]

B1: Proteinase K: protease from Tritirachium album, Sigma-Aldrich Co. (protein, UniProt P06873 106-384, looked up)
Proteinase K: AAQTNAPWGLARISSTSPGTSTYYYDESAGQGSCVYVIDTGIEASHPEFEGRAQMVKTYYYSSRDGNGHGTHCAGTVGSRTYGVAKKTQLFGVKVLDDNGSGQYSTIIAGMDFVASDKNNRNCPKGVVASLSLGGGYSSSVNSAAARLQSSGVMVAVAAGNNNADARNYSPASEPSVCTVGASDRYDRRSSFSNYGSVLDIFGPGTSILSTWIGGSTRSISGTSMATPHVAGLAAYLMTLGKTTAASACRYIADTANKGDLSNIPFGTVNLLAYNNYQA
  Result (detected value of the fructosyl amino acid after proteolysis): C (the detected value of less than 20 pA)

Reference: patent US8128802B2, “Analysis apparatus and analysis method for glycosylated hemoglobin” (OJI Paper Co., Ltd, priority 2005, dated 2012)
